This is an account of results in publication PMC8034652 (Nucleic Acids Research, 2021).

This series deals with the molecule itself. The series is described as follows: native gel or EMSA.

B1: FOXO1 R225A mutant (domain or fragment)
chain: KSSSSRRNAWGNLSYADLITKAIESSAEKRLTLSQIYEWMVKSVPYFKDKGDSNSSAGWKNSIRHNLSLHSKFIAVQNEGTGKSSWWMLNPEGGKSGKSPRRRAASMDNNSKFAKS
For B1, the binding result is “binds”.

B2: FOXO1 Q227A mutant (domain or fragment)
chain: KSSSSRRNAWGNLSYADLITKAIESSAEKRLTLSQIYEWMVKSVPYFKDKGDSNSSAGWKNSIRHNLSLHSKFIRVANEGTGKSSWWMLNPEGGKSGKSPRRRAASMDNNSKFAKS
For the protein B2, the binding result was “binds”.
